This assay has as its target catalytic subunit of the cellular DNA-dependent protein kinase (human) (UniProt P78527). Put plainly: cell-based or functional assay.
Chain of UniProt P78527 (P78527 whole entry): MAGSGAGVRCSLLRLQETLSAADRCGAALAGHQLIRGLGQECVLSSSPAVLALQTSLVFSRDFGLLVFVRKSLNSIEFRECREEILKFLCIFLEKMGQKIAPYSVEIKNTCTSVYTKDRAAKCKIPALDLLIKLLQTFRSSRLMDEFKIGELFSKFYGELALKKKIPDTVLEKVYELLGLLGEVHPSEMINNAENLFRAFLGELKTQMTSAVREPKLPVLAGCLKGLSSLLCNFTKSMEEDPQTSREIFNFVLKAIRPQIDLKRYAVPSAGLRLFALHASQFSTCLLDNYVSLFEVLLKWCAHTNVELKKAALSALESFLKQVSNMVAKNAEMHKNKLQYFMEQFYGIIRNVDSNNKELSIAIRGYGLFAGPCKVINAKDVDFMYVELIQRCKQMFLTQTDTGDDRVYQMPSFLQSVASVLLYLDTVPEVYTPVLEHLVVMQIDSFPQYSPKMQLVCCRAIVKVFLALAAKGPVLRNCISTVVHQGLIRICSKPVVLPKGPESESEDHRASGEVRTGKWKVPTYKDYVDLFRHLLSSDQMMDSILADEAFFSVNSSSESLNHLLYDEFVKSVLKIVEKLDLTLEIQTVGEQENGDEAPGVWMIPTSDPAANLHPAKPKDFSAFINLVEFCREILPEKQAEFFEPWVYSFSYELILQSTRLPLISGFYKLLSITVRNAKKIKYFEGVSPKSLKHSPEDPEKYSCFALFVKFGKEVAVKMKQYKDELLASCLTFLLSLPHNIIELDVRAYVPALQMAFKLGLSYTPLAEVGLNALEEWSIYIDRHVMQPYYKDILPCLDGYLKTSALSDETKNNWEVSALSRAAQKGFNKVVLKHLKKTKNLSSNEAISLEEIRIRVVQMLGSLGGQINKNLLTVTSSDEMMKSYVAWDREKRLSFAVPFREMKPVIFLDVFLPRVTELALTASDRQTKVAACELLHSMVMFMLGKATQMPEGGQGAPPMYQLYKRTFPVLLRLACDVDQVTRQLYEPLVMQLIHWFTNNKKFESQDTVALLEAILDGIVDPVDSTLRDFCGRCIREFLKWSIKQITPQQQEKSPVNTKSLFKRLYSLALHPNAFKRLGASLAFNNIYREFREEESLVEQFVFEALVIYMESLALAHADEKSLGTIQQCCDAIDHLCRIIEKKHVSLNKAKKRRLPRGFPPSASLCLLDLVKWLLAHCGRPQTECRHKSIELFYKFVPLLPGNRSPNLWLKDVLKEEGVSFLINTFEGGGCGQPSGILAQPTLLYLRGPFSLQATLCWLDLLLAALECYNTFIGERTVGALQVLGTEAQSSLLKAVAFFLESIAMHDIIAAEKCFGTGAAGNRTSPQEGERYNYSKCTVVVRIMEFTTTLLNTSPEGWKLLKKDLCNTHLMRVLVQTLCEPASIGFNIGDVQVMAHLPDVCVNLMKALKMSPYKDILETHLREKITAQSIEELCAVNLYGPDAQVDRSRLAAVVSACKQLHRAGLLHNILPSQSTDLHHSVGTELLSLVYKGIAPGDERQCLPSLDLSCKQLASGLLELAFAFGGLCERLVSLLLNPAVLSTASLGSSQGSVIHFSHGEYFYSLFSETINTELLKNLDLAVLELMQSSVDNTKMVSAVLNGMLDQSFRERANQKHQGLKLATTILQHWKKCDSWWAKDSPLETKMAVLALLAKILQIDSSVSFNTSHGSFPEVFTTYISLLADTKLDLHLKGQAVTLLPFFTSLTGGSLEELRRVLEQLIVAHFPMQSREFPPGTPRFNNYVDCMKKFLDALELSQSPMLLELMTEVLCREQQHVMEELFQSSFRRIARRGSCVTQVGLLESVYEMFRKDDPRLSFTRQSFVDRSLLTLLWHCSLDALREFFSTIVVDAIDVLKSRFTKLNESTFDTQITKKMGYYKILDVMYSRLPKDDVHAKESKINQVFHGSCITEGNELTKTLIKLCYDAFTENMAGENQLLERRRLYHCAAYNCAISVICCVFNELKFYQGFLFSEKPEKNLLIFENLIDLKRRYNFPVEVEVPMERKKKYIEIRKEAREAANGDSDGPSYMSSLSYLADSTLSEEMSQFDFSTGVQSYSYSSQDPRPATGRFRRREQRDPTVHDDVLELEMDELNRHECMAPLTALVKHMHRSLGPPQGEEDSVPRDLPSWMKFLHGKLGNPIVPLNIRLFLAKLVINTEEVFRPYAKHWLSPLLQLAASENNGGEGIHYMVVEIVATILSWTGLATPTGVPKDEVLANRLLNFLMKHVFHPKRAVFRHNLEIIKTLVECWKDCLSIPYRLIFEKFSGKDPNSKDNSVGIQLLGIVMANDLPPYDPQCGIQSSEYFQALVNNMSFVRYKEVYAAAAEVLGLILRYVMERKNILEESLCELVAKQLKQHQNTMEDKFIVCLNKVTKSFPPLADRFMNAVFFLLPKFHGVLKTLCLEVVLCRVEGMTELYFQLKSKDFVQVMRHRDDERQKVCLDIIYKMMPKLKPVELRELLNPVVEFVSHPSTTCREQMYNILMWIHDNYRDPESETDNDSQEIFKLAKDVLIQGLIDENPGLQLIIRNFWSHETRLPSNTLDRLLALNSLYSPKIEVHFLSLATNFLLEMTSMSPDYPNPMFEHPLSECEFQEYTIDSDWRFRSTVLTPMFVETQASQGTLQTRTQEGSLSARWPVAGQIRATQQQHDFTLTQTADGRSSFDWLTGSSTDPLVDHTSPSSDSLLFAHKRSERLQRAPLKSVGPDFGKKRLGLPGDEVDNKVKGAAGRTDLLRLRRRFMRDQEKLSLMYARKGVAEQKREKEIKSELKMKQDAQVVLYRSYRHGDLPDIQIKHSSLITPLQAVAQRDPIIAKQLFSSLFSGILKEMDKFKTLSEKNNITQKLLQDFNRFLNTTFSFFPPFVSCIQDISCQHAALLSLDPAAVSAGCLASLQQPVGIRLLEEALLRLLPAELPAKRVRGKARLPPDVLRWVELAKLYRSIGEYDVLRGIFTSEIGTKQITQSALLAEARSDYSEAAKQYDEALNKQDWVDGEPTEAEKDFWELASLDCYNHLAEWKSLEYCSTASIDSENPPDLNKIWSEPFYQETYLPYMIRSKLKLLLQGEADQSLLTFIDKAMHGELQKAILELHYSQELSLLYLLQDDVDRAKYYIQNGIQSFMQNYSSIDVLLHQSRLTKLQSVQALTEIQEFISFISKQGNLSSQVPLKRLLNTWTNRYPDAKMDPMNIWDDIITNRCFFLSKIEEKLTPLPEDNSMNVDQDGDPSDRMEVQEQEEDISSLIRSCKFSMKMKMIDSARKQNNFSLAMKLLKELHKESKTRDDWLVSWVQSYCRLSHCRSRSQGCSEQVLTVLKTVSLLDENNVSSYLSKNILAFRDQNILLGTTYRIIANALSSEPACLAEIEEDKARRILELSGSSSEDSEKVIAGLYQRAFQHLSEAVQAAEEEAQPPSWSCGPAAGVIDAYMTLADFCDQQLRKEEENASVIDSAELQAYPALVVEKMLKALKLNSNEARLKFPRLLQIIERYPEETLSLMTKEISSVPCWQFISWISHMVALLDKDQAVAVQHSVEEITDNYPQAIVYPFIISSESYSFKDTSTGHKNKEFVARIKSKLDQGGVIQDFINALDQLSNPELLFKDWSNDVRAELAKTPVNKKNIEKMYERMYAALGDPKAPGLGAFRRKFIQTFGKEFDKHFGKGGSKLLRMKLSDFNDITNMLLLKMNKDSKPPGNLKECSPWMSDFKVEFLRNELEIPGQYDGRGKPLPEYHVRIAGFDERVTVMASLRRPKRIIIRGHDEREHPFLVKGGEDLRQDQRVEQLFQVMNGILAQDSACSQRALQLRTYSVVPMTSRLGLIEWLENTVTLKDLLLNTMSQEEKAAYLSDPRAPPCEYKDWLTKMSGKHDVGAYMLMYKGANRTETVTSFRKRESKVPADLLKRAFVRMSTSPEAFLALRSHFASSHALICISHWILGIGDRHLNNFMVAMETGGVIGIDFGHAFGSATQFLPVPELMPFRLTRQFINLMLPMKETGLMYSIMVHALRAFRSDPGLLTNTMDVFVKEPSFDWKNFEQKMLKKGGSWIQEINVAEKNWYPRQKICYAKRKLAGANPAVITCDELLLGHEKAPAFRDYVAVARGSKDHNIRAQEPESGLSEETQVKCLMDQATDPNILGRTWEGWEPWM

Chain of adenovirus E4 34k protein (product of early region 4 ORF6), expressed from plasmid OE6.5 as a fusion with a c-myc epitope (P03239 whole entry, the tested form may be a part): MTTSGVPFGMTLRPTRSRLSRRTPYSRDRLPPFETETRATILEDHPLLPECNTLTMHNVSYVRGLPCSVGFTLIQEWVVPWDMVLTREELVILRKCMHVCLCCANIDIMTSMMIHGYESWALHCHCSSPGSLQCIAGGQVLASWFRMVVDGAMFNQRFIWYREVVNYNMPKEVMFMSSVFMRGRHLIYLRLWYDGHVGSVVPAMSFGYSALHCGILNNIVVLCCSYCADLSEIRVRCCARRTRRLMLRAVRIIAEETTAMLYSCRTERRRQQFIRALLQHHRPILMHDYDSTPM

As to “adenovirus E4 34k protein (product of early region 4 ORF6), expressed from plasmid OE6.5 as a fusion with a c-myc epitope”, the V(D)J recombination frequency (recombinant formation of substrate plasmid pJH200 in transfected 293 cells) turned out to be 5 fold.

The record behind these values is US7022496.
